Experimental data reported in patent publication US20100204100A1, “BIOLOGICAL AGENTS ACTIVE IN CENTRAL NERVOUS SYSTEM” (THE JOHNS HOPKINS UNIVERISTY, priority 2007, published 2010).
Substitutions are numbered along the chain they refer to. Numbers in names are those of the source. Entries after “also recorded” stand apart in the source; their conditions may differ.

B1: Tat-PSD-95 PDZ2: His-tagged fusion peptide: HIV Tat minimal transduction domain (residues 47-57) fused to the second PDZ domain of PSD-95 (protein)
chain: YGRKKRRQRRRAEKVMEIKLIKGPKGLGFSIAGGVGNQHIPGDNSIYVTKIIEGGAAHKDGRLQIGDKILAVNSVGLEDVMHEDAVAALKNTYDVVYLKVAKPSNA
B2: mutated Tat-PSD-95 PDZ2: Control fusion peptide: Tat-PSD-95 PDZ2 with three sites critical for NMDAR/PSD-95 interaction mutated (K165T, L170R and H182L) (protein)
chain: B1 chain with K22T, L27R, H39L
B3: PSD-95 PDZ2: Control peptide containing the same sequences as Tat-PSD-95 PDZ2 but without Tat PTD (protein)
chain: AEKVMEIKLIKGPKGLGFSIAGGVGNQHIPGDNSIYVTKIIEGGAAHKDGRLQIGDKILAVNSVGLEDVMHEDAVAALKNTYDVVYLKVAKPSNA

Assays:
[1] = In vivo CNS / spinal cord distribution of Tat fusion peptides after intraperitoneal injection (Western blot, immunohistochemistry); set-up: species or system mouse; details: mice; for delivery into lumbar spinal cord, Western blot: 4 h after intraperitoneal injection; for delivery into cerebral cortex, hippocampus and lumbar spinal cord, Western blotting: 4 h after intraperitoneal injection (data not shown); for distribution in the spinal cord, immunohistochemical staining: after intraperitoneal injection; for dose dependence of delivery into the spinal cord, Western blot: intraperitoneal 2, 4, 8 mg/kg
Protocol: In Vivo Systemic Administration and Spinal Cord Distribution of Tat Fusion Peptides. Western blot analysis and immunohistochemistry were used to detect the spinal cord distribution of Tat fusion peptides after systemic administration. The purified fusion peptides at the indicated amounts were injected into mice intraperitoneally in 300 μl of PBS and 10% glycerol, as previously described (Cao, et al., 2002). The mice, assigned randomly to the experimental groups of 6-8, were given Tat-PSD-95 PDZ2 or control peptide (mutated Tat-PSD-95 PDZ2 or PSD-95 PDZ2 without Tat PTD) 4 h before sample collection. For Western blotting, lumbar spinal cord tissues were harvested, homogenized according to standard procedures, and centrifuged at 700×g for 15 min at 4° C. The extracted proteins were resolved by SDS-PAGE, electro-transferred to nitrocellulose membranes, and then immunoblotted with above-mentioned monoclonal anti-His antibody. For immunohistochemistry, sections from the spinal lumbar enlargement segments were fixed in 4% paraformaldehyde (in 0.1 M phosphate buffer, pH 7.4) for 10 min, and then incubated with the monoclonal anti-His antibody. Thereafter, the sections were rinsed with 0.01 M PBS, incubated with fluorescein isothiocyanate-conjugated anti-mouse IgG (1:80; Jackson ImmunoResearch Laboratories) for 1 h at 37° C., and rinsed again with PBS. The sections were imaged with confocal laser scanning microscopy at an excitation wavelength of 488 nm for fluorescein isothiocyanate.
The purified fusion peptides at the indicated amounts were injected intraperitoneally into mice in 300 μl of phosphate-buffered saline and 10% glycerol. The mice were given Tat-PSD-95 PDZ2 or control peptide (mutated Tat-PSD-95 PDZ2 or PSD-95 PDZ2 without Tat) 4 h before MAC measurement and righting reflex testing. All the animals were assigned randomly to experimental groups consisting of 6-8 animals each. Western blot analysis was then used to verify the CNS delivery of these fusion peptides after intraperitoneal injection.
Cerebral cortex, hippocampus, and lumbar spinal cord were harvested 4 h after intraperitoneal injection of the fusion peptides. Total proteins from these tissues were extracted. In brief, the tissues were removed and homogenized in homogenization buffer^18 (10 mM Tris-HCl, 5 mM MgCl2, 2 mM EGTA, 1 mM phenylmethylsulfonyl fluoride, […] leupeptin, 2 μM pepstatin A, and 320 mM sucrose, pH 7.4). The crude homogenates were centrifuged at 700×g for […] at 4° C. The pellets were rehomogenized and spun again at 700×g, and the supernatants were combined and diluted in resuspension buffer^18 (10 mM Tris-HCl, 5 mM MgCl2, 2 mM EGTA, 1 mM phenylmethylsulfonyl fluoride, 1 μM leupeptin, 2 μM pepstatin A, and 250 mM sucrose, pH 7.4). Next, the protein extracts were resolved by sodium dodecyl sulfate-polyacrylamide gel electrophoresis, electrotransferred to nitrocellulose membranes, and then immunoblotted with monoclonal anti-His antibody (Sigma, St. Louis, Mo.) diluted (1:1,000) in blocking solution containing 3% nonfat dry milk and 0.1% Tween-20 in Tris-HCl-buffered saline for 1 h at room temperature. After extensive washing, the membranes were incubated with horseradish peroxidase-conjugated anti-mouse immunoglobulin (Bio-Rad Laboratories, Hercules, Calif.) at a dilution of 1:3,000 for another 1 h. Specific proteins were detected by enhanced chemiluminescence (Amersham, Piscataway, N.J.). Tubulin served as a loading control and cerebral cortex was used for its detection.

[2] = test system: threshold for halothane anesthesia; experiment: Measurement of halothane MAC (tail clamp); assay type: in vivo, mouse; details: mice; for halothane MAC: mean±S.E.M., vehicle 1.12±0.05; for effect on halothane MAC: intraperitoneal injection, dose series
Protocol: The purified fusion peptides at the indicated amounts were injected intraperitoneally into mice in 300 μl of phosphate-buffered saline and 10% glycerol. The mice were given Tat-PSD-95 PDZ2 or control peptide (mutated Tat-PSD-95 PDZ2 or PSD-95 PDZ2 without Tat) 4 h before MAC measurement and righting reflex testing. All the animals were assigned randomly to experimental groups consisting of 6-8 animals each. Western blot analysis was then used to verify the CNS delivery of these fusion peptides after intraperitoneal injection. Measurement of halothane MAC value was carried out as previously described with minor modification^20-22. Mice were placed in individual Plexiglas chambers 3 h after the injection of the fusion peptides. Each chamber was fitted with a rubber stopper at one end through which the mouse's tail and a rectal temperature probe protruded. Groups of four mice were given halothane in oxygen (4 l/min total gas flow). A gas sample was continuously drawn, and the anesthetic concentration was measured with an agent analyzer (Ohmeda 5250 RGM, Louisville, Colo.). A rectal temperature probe was inserted under light general anesthesia, and temperature was kept at 36˜38° C. with heat lamps throughout the experiment. Mice initially breathed approximately 1.5% halothane for 60 min. […] In each case, the tail was stimulated proximal to the previous test site. Only the middle third of the tail was used for tail-clamping. […] The anesthetic concentration was increased (or decreased) in steps of 0.1% until the positive response disappeared (or vice versa), with 10 min for equilibration allowed after each change of anesthetic concentration. MAC is defined as the concentration midway between the highest concentration that permitted movement in response to the stimulus and the lowest concentration that prevented movement.

Molecule | delivery into lumbar spinal cord, Western blot [1] | delivery into cerebral cortex, hippocampus and lumbar spinal cord, Western blotting [1] | distribution in the spinal cord, immunohistochemical staining [1] | dose dependence of delivery into the spinal cord, Western blot [1] | dose dependence of delivery into the spinal cord, Western blot ([1]; listed as Tat-P SD-95 PDZ2) | halothane MAC ([2]; 2 mg/kg intraperitoneal) | halothane MAC ([2]; 4 mg/kg intraperitoneal) | effect on halothane MAC compared to the vehicle-treated group ([2]; 8 mg/kg intraperitoneal) | halothane MAC ([2]; 8 mg/kg intraperitoneal) | effect on halothane MAC [2] | difference in PTD-mediated spinal delivery versus Tat-PSD-95 PDZ2 ([1]; intraperitoneal injection, Western blot) | delivery into lumbar spinal cord, Western blot ([1]; listed as PSD-95 PDZ2 without Tat)
B1 | delivered into lumbar spinal cord | delivered into cerebral cortex, hippocampus and lumbar spinal cord | distributed in the spinal cord | dose-dependently delivered; also recorded: dose-dependent | dose-dependent | 1.11±0.05 | 0.99±0.05 | significantly reduced | 0.77±0.05 | dose-dependently reduced |  | 
B2 | delivered into lumbar spinal cord | delivered into cerebral cortex, hippocampus and lumbar spinal cord |  |  |  |  |  | no effect |  | no effect | No significant difference | 
B3 |  |  | not detected |  |  |  |  | no effect |  | no effect |  | not detected
